Results taken from patent publication US20180162923A1 (UNIVERSITY OF BRITISH COLUMBIA, published 2018).
Blank lines part the entries; values can stand above or below the molecule they belong to.

How the values were obtained:
DU145 cells = experiment: flow cytometry on DU145 cells, rhIgGFc at 100 nM, detected with anti-IgGFc-specific PE secondary antibody (control)
PLEXIN B1 [1] = target: T1, PLEXIN B1 (human, UniProt O43157 20-2135); experiment: alkaline phosphatase ligand binding assay on DU145 cells B1 siRNA1 against scramble siRNA; APTag background subtracted
T1 construct: whole, on cells; Endogenous receptor on cells
Experimental: (§1) Cells were washed and then lysed. Plexin B1 levels were analyzed from lysates (30 μg) by polyacrylamide gel electrophoresis (PAGE). Western Blots were probed with anti-Plexin B1 and anti-phospho-Shc. Blots were re-probed with anti-vinculin and anti-Shc as loading control. DU145 cells were transfected with scramble siRNA, Plexin B1siRNA1 or PlexinB1 siRNA2 (10 nM) using RNAiMax™ reagent as directed by the manufacturer, (Invitrogen™, Missisauga, Ontario). Following 72 hours incubation the cells were replated at 20,000 cells/well in a 96-well flat bottom plate and let adhere for 4 hours. The remaining cells were lysed and assayed for PlexinB1 expression by Western Blot. The blot was reprobed with vinculin as loading control. Medium was replaced with DMEM without serum for 16 hours prior to the binding assay. […]
(§2) The binding assay was performed as previously described by […], J G. and LEDER, P. (1990), endogenous phosphatase heat inactivation was done in HBHA at 65° C. following the fixation step. Plate readings at 562 nm were taken initially and then every 24 hours. […]
(§3) DU145 cells transfected with scramble siRNA or, two distinct siRNAs targeting Plexin B1. […] AP-Sema3C binding to DU145 cells that were transfected with scramble or Plexin B1 siRNAs, where the mean and SEM AP-Sema3C binding performed was calculated in quadruplicate.

PLEXIN B1 [2] = target: T1, PLEXIN B1; experiment: alkaline phosphatase ligand binding assay on DU145 cells transfected with Plexin B1 siRNA B1 siRNA2 against scramble siRNA; APTag background subtracted
Experimental: as §1, §2, §3

T1 sequence (O43157 20-2135): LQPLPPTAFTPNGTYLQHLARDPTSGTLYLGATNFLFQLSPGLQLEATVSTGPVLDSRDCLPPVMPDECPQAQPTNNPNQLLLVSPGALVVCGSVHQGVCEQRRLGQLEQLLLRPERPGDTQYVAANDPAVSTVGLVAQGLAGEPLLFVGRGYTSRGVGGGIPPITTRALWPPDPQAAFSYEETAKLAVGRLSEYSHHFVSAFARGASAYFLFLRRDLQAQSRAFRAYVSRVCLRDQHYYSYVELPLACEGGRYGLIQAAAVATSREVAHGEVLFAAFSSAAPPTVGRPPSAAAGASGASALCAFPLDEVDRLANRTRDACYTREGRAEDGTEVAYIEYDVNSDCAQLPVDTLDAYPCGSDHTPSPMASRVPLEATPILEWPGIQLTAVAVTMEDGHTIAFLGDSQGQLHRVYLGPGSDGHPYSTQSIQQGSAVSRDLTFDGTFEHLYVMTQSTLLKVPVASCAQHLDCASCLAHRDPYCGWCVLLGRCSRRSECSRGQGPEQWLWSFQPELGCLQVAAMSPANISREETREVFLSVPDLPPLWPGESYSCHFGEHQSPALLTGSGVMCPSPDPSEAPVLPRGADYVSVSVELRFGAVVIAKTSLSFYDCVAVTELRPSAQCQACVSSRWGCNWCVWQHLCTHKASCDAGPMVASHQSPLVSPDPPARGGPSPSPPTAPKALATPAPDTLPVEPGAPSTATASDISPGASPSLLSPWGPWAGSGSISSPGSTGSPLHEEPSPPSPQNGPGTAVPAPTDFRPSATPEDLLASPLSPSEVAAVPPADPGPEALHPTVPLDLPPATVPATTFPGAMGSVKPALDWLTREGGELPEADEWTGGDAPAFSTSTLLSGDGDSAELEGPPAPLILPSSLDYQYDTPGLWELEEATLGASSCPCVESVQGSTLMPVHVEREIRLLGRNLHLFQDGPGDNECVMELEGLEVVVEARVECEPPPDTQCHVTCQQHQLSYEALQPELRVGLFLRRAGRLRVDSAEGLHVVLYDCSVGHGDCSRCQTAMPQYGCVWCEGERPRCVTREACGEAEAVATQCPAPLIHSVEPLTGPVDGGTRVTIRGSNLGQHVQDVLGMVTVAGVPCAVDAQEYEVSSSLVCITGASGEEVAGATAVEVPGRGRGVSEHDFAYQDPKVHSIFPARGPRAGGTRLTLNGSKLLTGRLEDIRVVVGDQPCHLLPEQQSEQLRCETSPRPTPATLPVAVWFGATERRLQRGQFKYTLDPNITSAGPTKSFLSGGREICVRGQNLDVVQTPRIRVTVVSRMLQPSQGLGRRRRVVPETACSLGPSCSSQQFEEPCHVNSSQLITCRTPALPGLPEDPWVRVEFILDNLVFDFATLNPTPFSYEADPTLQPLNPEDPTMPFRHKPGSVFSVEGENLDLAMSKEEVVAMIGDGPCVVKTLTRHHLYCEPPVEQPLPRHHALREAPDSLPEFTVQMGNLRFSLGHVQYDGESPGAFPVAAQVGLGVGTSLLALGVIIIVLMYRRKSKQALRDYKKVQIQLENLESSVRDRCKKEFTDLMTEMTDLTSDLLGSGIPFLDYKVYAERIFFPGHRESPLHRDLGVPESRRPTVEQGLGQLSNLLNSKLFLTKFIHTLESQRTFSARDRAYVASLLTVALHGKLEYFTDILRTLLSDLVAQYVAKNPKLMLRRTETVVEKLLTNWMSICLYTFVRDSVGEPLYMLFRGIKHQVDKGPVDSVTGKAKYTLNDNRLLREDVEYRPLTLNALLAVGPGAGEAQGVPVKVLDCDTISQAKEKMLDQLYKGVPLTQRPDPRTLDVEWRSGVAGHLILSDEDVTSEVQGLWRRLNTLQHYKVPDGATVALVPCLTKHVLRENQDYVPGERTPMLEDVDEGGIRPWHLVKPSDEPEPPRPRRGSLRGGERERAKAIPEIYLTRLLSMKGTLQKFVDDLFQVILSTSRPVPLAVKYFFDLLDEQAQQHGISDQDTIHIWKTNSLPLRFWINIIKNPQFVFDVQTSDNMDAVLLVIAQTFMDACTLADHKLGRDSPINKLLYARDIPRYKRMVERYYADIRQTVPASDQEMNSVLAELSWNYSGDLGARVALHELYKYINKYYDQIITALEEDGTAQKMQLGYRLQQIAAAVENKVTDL

level of staining at 100 nM (DU145 cells): 6.01%
Molecule: Recombinant human IgGFc

fold reduction of binding on Plexin B1 knockdown against scramble siRNA (PLEXIN B1 [1]): 2.4 fold
fold reduction of binding on Plexin B1 knockdown against scramble siRNA (PLEXIN B1 [2]): 1.9 fold
B1: AP-SEMA3C (ligand, UniProt Q99985 21-751, looked up)
chain: GSSQPQARVYLTFDELRETKTSEYFSLSHHPLDYRILLMDEDQDRIYVGSKDHILSLNINNISQEALSVFWPASTIKVEECKMAGKDPTHGCGNFVRVIQTFNRTHLYVCGSGAFSPVCTYLNRGRRSEDQVFMIDSKCESGKGRCSFNPNVNTVSVMINEELFSGMYIDFMGTDAAIFRSLTKRNAVRTDQHNSKWLSEPMFVDAHVIPDGTDPNDAKVYFFFKEKLTDNNRSTKQIHSMIARICPNDTGGLRSLVNKWTTFLKARLVCSVTDEDGPETHFDELEDVFLLETDNPRTTLVYGIFTTSSSVFKGSAVCVYHLSDIQTVFNGPFAHKEGPNHQLISYQGRIPYPRPGTCPGGAFTPNMRTTKEFPDDVVTFIRNHPLMYNSIYPIHKRPLIVRIGTDYKYTKIAVDRVNAADGRYHVLFLGTDRGTVQKVVVLPTNNSVSGELILEELEVFKNHAPITTMKISSKKQQLYVSSNEGVSQVSLHRCHIYGTACADCCLARDPYCAWDGHSCSRFYPTGKRRSRRQDVRHGNPLTQCRGFNLKAYRNAAEIVQYGVKNNTTFLECAPKSPQASIKWLLQKDKDRRKEVKLNERIIATSQGLLIRSVQGSDQGLYHCIATENSFKQTIAKINFKVLDSEMVAVVTDKWSPWTWASSVRALPFHPKDIMGAFSHSEMQMINQYCKDTRQQHQQGDESQKMRGDYGKLKALINSRKSRNRRNQLPES
notes: Used as conditioned medium from 293T cells; also called AP-SEMA 3C construct; not shown: alkaline phosphatase tag of the APTag vector
